Measured values published in PMC6172241, “A multisubstrate reductase from Plantago major: structure-function in the short chain reductase superfamily” (Scientific Reports, 2018).

Target: PmMOR (Plantago major multisubstrate oxido-reductase) (Plantago major)
Experiment: SEC; Superdex 200, 20 mM Tris pH 8.0, 100 mM NaCl, 1 mM TCEP; oligomeric state judged from the elution volume

stoichiometry N: 2
Substance: PmMOR (Plantago major multisubstrate oxido-reductase) (enzyme)
